Measured values: patent publication US20180163216, “GENE EXPRESSION IN BACTEROIDES” (Massachusetts Institute of Technology, published 2018)

Columns and labels:
Int12 serine integrase = system: T1, Int12 serine integrase; assay: cell_activity; settings: flipping in <1 day in mouse gut with rhamnose; also inversion by PCR in vitro culture
T1 sequence: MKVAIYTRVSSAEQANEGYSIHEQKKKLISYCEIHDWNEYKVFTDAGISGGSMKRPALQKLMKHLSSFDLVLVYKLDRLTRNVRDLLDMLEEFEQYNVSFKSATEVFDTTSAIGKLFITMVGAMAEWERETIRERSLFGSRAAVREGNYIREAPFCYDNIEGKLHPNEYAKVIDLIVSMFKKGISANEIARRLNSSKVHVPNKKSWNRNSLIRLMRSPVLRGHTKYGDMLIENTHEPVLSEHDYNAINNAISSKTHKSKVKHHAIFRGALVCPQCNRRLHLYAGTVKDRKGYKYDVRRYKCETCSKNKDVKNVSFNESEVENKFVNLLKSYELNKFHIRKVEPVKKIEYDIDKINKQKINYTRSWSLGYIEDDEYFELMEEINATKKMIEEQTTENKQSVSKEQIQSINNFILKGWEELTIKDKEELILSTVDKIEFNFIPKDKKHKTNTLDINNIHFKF

[1] = system: RhaR (AraC/XylS-family activator) (Bacteroides thetaiotaomicron); assay: cell_activity; settings: printed 104-fold (10^4); rhamnose-induced NanoLuc; K=0.3 mM rhamnose, n=1.4
LacIQ repressor [2] = target: T2, LacIQ repressor (Escherichia coli, UniProt P03023 SEQ:5-363); assay: cell_activity; fold induction by IPTG; K=86 uM IPTG; settings: expressed from PBT1311 in B. thetaiotaomicron; chain copies: 4
T2 sequence (P03023 2-360): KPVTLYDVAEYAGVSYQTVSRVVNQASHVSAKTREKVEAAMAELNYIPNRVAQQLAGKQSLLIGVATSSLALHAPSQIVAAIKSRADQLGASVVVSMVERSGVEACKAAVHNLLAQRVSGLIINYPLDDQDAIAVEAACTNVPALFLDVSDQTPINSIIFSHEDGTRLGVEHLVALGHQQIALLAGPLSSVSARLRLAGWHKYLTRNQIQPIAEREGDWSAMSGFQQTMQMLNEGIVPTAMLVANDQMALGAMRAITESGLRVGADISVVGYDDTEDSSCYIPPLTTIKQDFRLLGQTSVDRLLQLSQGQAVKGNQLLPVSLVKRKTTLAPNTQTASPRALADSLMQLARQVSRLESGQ
Source text: (§1) Next, an IPTG-inducible system was developed. Pairs of LacO1 operator sites were inserted in the strong PcfxA promoter in three locations: upstream of the −33 element (O1), between the −33 and −7 elements (O2) or just downstream of the transcription start site (O3) (FIGS. 7A-7B).

LacIQ repressor [3] = target: T2, LacIQ repressor; assay: cell_activity; fold induction by IPTG; K=6 uM IPTG; settings: expressed from PBT1311 in B. thetaiotaomicron; chain copies: 4
Source text: as §1

Int12 attB/attP in memory array
activity (Int12 serine integrase): > 90%

TATTTCGGAGAAAACATGCATAAATCATGCTTTTTTTGCATAAAAAGTAAAATTTATACTGATGTAAGGTTTGGCTATGCAGATTTGTGTCAAAATGCACATCCTTTCTATCAAAATGCGTAAGGAAAAGGAGGAAGGAACCGCCTATCTTTGCAATGTAGGTAAATGGATACCTTAAATATATAGACAAAATACC (double strand) [PBT3763]
activity [1]: 10000 fold

B1: PLacO13 (dsDNA)
DNA 1: TTACAAAGAAAATTCGACAAACTGTTATTTTTCTATCTATTTAAATTGTGAGCGGATAACAATTTGGGTGGGAAACTTTAGTTATGTACCTTTGTCGGCAATTGTGAGCGGATAACAATTAAATAAAGATATTCTCGTCAAACAAATATAAATAATATAAAC
DNA 2: GTTTATATTATTTATATTTGTTTGACGAGAATATCTTTATTTAATTGTTATCCGCTCACAATTGCCGACAAAGGTACATAACTAAAGTTTCCCACCCAAATTGTTATCCGCTCACAATTTAAATAGATAGAAAAATAACAGTTTGTCGAATTTTCTTTGTAA
activity (LacIQ repressor [2]): 8 fold

B2: PLacO23 (dsDNA)
DNA 1: TTACAAAGAAAATTCGACAAACTGTTATTTTTCTATCTATTTATTTGAATTGTGAGCGGATAACAATTACCTTTGTCGGCAATTGTGAGCGGATAACAATTAAATAAAGATATTCTCGTCAAACAAATATAAATAATATAAAC
DNA 2: GTTTATATTATTTATATTTGTTTGACGAGAATATCTTTATTTAATTGTTATCCGCTCACAATTGCCGACAAAGGTAATTGTTATCCGCTCACAATTCAAATAAATAGATAGAAAAATAACAGTTTGTCGAATTTTCTTTGTAA
activity (LacIQ repressor [3]): 22 fold
